Laboratory results reported in PMC5461540 (2017).
Where two headings read alike, the source gives them in different places. One block for each binder: values may come before it. Where no end group is shown, it is not given here. [ ]: non-standard residue; d: D form. pS = N[C@@H](COP(=O)(O)O)C(=O)O

B1: MOB1A wild-type (natural protein)
chain: SFLFSSRSSKTFKPKKNIPEGSHQYELLKHAEATLGSGNLRQAVMLPEGEDLNEWIAVNTVDFFNQINMLYGTITEFCTEASCPVMSAGPRYEYHWADGTNIKKPIKCSAPKYIDYLMTWVQDQLDDETLFPSKIGVPFPKNFMSVAKTILKRLFRVYAHIYHQHFDSVMQLQEEAHLNTSFKHFIFFVQEFNLIDRRELAPLQELIEKLGSKDR

Tests used:
yeast Mob1 [1] = biological target: T1, yeast Mob1 (yeast, UniProt P40484 79-314); experiment: FP
T1 chain: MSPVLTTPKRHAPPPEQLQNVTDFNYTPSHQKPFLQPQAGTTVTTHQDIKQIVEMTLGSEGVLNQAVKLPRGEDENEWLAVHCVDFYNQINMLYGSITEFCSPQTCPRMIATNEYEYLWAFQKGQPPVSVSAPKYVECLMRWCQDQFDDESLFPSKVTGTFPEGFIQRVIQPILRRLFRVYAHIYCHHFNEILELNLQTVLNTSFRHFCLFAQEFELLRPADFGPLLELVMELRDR

MOB1A wild-type [2] = biological target: B1; experiment: FP
[3] = biological target: T2, FITC labeled MST1 pT329 phosphopeptide (human, UniProt Q13043, phosphothreonine at 329; FITC label (position not given)); experiment: FP
T2 sequence (Q13043 whole entry, looked up): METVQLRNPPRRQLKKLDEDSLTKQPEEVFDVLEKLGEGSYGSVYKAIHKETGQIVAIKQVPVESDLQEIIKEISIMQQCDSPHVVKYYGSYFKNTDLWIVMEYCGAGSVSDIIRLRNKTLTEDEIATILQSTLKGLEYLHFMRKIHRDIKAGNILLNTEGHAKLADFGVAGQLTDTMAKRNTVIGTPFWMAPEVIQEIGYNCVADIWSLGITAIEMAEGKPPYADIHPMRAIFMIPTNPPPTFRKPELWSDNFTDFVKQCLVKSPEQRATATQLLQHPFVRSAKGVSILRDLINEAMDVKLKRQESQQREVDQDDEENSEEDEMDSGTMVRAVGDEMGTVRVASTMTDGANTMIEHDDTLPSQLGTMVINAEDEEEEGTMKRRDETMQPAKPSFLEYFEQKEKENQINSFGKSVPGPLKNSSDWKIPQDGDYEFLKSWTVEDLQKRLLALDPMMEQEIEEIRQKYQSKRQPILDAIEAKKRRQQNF

[4] = biological target: T3, FITC labeled MST1 pT340 phosphopeptide (human, UniProt Q13043, phosphothreonine at 340; FITC label (position not given)); experiment: FP
T3 sequence (Q13043 whole entry, looked up): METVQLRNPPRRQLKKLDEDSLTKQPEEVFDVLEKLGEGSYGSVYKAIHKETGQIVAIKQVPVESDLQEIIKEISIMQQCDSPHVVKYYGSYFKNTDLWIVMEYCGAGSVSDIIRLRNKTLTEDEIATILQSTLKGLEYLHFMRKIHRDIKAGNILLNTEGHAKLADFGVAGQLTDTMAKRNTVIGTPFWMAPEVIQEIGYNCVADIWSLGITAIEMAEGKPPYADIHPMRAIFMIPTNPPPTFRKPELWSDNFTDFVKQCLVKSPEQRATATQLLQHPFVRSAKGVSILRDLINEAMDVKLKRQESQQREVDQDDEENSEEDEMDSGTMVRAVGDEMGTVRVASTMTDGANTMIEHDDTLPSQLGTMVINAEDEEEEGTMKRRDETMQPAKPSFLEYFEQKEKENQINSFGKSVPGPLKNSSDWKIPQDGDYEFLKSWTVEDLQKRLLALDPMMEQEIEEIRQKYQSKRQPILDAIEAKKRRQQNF

[5] = biological target: T4, FITC labeled MST1 pT380 phosphopeptide (human, UniProt Q13043, phosphothreonine at 380; FITC label (position not given)); experiment: FP
T4 sequence (Q13043 whole entry, looked up): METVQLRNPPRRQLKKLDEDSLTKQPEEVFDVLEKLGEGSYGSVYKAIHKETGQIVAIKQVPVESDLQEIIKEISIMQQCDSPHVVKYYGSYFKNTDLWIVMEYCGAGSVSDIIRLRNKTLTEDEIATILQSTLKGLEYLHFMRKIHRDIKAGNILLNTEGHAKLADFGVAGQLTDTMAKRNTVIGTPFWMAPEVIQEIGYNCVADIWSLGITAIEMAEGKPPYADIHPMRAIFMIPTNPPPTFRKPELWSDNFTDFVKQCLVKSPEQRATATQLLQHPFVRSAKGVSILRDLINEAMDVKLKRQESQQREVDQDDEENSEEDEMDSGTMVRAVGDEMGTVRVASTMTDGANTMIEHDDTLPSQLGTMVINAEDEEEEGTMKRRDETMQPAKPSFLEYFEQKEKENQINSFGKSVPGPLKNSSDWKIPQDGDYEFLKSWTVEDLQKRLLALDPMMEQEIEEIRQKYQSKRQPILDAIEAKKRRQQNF

[6] = biological target: T4, FITC labeled MST1 pT380 phosphopeptide; experiment: FP; remark: listed apart in the source
[7] = biological target: T2, FITC labeled MST1 pT329 phosphopeptide; experiment: FP; remark: listed apart in the source
[8] = biological target: T3, FITC labeled MST1 pT340 phosphopeptide; experiment: FP; remark: listed apart in the source
MST1 pT380/pT387 peptide = experiment: FP; doubly phosphorylated pT380/pT387
MST1 pT329/pT340 peptide = experiment: FP; doubly phosphorylated pT329/pT340
MOB1A wild-type [9] = biological target: B1; experiment: FP
yeast Mob1 [10] = biological target: T1, yeast Mob1; experiment: FP
MOB1B (tags cleaved) = biological target: T5, MOB1B (tags cleaved) (human, UniProt Q7L9L4-2 2-216); experiment: FP
T5 chain: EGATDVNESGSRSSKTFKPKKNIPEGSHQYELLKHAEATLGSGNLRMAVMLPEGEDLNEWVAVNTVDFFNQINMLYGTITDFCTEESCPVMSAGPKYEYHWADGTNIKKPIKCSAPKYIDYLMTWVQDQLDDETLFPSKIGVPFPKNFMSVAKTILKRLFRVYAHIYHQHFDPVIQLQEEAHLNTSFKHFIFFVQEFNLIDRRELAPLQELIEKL

MOB3C = biological target: T6, MOB3C (human, UniProt Q70IA8 2-216); experiment: FP
T6 chain: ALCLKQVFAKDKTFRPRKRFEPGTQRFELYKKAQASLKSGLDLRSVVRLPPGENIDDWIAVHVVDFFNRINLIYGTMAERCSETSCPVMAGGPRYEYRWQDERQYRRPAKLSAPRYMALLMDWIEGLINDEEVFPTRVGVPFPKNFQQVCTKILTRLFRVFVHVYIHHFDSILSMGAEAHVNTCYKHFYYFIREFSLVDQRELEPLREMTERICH

MOB3B = biological target: T7, MOB3B (human, UniProt Q86TA1 2-216); experiment: FP
T7 chain: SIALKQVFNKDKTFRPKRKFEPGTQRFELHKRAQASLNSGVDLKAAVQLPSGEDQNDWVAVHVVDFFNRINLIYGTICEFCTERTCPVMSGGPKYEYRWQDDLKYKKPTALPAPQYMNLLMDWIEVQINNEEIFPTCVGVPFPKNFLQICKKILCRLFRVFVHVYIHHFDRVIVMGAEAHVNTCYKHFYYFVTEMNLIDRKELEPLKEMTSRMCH

MOB3A = biological target: T8, MOB3A (human, UniProt Q96BX8 2-217); experiment: FP
T8 chain: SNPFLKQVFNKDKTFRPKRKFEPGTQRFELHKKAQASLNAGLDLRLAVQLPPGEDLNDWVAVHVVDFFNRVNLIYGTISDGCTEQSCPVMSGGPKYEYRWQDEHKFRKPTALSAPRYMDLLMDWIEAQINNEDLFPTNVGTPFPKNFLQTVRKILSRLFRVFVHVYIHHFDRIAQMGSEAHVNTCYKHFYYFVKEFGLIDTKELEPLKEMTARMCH

Binder: B1
Kd [3]: 46.5 µM
Kd [4]: 66.1 µM
Kd [5]: 185 µM
Kd [6]: 186 µM
Kd [7]: 47 µM
Kd [8]: 66 µM
Kd (MST1 pT380/pT387 peptide): 95 µM
Kd (MST1 pT329/pT340 peptide): 49 µM

B3: FITC labeled phosphorylated MST1 T353 peptide (peptide)
chain: VASTMTDGANTMIEH
modifications: also: phosphothreonine at 353 (place in peptide not given here), FITC label, position not given here
Kd (MOB1A wild-type [9]): 0.31 µM

Now from value to binder:

Kd (yeast Mob1 [1]): 0.4 µM
Kd (MOB1A wild-type [2]): 30 µM
Binder: YH[pS]VVRYA (also: FITC label, position not given here) [optimized Nud1-like phosphoserine containing peptide (FITC labeled)]

Kd (MOB1A wild-type [9]): 0.58 µM
Kd (yeast Mob1 [10]): 29.3 µM
Kd (MOB1B (tags cleaved)): 0.78 µM
Kd (MOB3C): 2.3 µM
Kd (MOB3B): 2.6 µM
Kd (MOB3A): 2.9 µM
Kd (yeast Mob1 [1]): 29 µM
Kd (MOB1A wild-type [2]): 0.8 µM
B2: FITC labeled phosphorylated MST1 T367 peptide (peptide)
chain: DDTLPSQLGTMVINA
modifications: also: phosphothreonine at 367 (place in peptide not given here), FITC label, position not given here
